Data as given in PMC12520357 (2025).

B1: Reg1-FLAG (wild type) [S. cerevisiae] / Glc7-GFP [S. cerevisiae] (parent complex)
chain 1: MSTNLANYFAGKKDIENEHVNRNASHESNSKSDVKISGNDNDNDEDMGPSVSMAVQAKNDDDFHKSTFNLKRTRSMGLLDEYIDPTKKLLGRSDDLYDNDNEYYDNSSNNSSSNSSDDDYDDGYQEHSTSVSPPPADNDSYLIPQDDNDVVVEPERHVDYLSHEWKESEISNSWKYIILKKKKRDVDLVNAARLENASWRTWAKARNNLKTVSPEVVNWSKDSDVTWLYGPIVRDSEGNAQSEEEHDLERGYGSDDENSKRISMPTKNSKSIAAAPKPILKKRTVTEIIEDNALWKLNEARKHMTEMKHASVIMDPNGNKNVHDDFDALAAQVNAQYYHYPKESNSSVSLKSQHSDKKDNSTIPNPVGENSNGGGDKGEEDLHLKSALHVQNNRSTAQSNKSILENSTNDRKANLDQNLNSPDNNRFPSSTSSSNRDNENNSMGLSSILTSNPSEKSNKPTKNRHIHFNDRVEQCMALRYPASQSEDDESDDENKQYVDVNNNANVTTINNNRTPLLAIQHKSIPINSATEHLNKNTSDDDTSSQSSSSSHSDDEEHGGLYINARFSRRSDSGVHSPITDNSSVASSTTSRAHVRPIIKLLPDTTLNYGSDEESDNGEFNGYGNAVSHNVNTSRGYDYIYDYNSVYTGDTSSFLPVDSCDIVDVPEGMDLQTAIADDNASNYEFNNAVESKEKHVPQLHKASANNTTRQHGSHMLLYDDDNYSSSSDSEQQFIEDSQYNSSDDEEEEDDDDQEVDDNHDEGLSLRRTLSLGKSGSTNSLYDLAQPSLSSATPQQKNPTNFTGGKTDVDKDAQLAVRPYPLKRNSSSGNFIFNSDSEEESSSEEEQRPLPANSQLVNRSVLKGSVTPANISSQKKKALPKQPKASDSSQSFRIVNNTPSPAEVGASDVAIEGYFSPRNESIKSVVSGGNMMDHQDHSEMDTLAKGFENCHINNASKLKDKKVDSVQTTRKEASLTDSSNESLHKVVQNARGMASKYLHSWKKSDVKPQENGNDSS
chain 2: MDSQPVDVDNIIDRLLEVRGSKPGQQVDLEENEIRYLCSKARSIFIKQPILLELEAPIKICGDIHGQYYDLLRLFEYGGFPPESNYLFLGDYVDRGKQSLETICLLLAYKIKYPENFFILRGNHECASINRIYGFYDECKRRYNIKLWKTFTDCFNCLPIAAIIDEKIFCMHGGLSPDLNSMEQIRRVMRPTDIPDVGLLCDLLWSDPDKDIVGWSENDRGVSFTFGPDVVNRFLQKQDMELICRAHQVVEDGYEFFSKRQLVTLFSAPNYCGEFDNAGAMMSVDESLLCSFQILKPAQKSLPRQAGGRKKK
B2: Reg1-FLAG (wild type) [S. cerevisiae] / Snf1-GFP [S. cerevisiae] (parent complex)
chain 1: B1 chain 1
chain 2: MSSNNNTNTAPANANSSHHHHHHHHHHHHHGHGGSNSTLNNPKSSLADGAHIGNYQIVKTLGEGSFGKVKLAYHTTTGQKVALKIINKKVLAKSDMQGRIEREISYLRLLRHPHIIKLYDVIKSKDEIIMVIEYAGNELFDYIVQRDKMSEQEARRFFQQIISAVEYCHRHKIVHRDLKPENLLLDEHLNVKIADFGLSNIMTDGNFLKTSCGSPNYAAPEVISGKLYAGPEVDVWSCGVILYVMLCRRLPFDDESIPVLFKNISNGVYTLPKFLSPGAAGLIKRMLIVNPLNRISIHEIMQDDWFKVDLPEYLLPPDLKPHPEEENENNDSKKDGSSPDNDEIDDNLVNILSSTMGYEKDEIYESLESSEDTPAFNEIRDAYMLIKENKSLIKDMKANKSVSDELDTFLSQSPPTFQQQSKSHQKSQVDHETAKQHARRMASAITQQRTYHQSPFMDQYKEEDSTVSILPTSLPQIHRANMLAQGSPAASKISPLVTKKSKTRWHFGIRSRSYPLDVMGEIYIALKNLGAEWAKPSEEDLWTIKLRWKYDIGNKTNTNEKIPDLMKMVIQLFQIETNNYLVDFKFDGWESSYGDDTTVSNISEDEMSTFSAYPFLHLTTKLIMELAVNSQSN

Variants of: B1
Assay: co-immunoprecipitation (anti-FLAG IP, immunoblot quantification); n = 3; reg1Δ Snf1-GFP Glc7-GFP cells; parent: 1; read off a plot

Variant | ratio to parent
chain 1 A54T | ~0.93
chain 1 P231S | ~0.81
chain 1 N624S | ~1.5

Next, values leading:

ratio to parent | Variant
~0.8 | chain 1 P278Q
~0.66 | chain 1 W165G

Variants of: B2
Assay: as above

Variant | ratio to parent
chain 1 A54T | ~0.84
chain 1 N624S | ~0.74

The remaining lines, values ahead:

ratio to parent | Variant
~0.95 | chain 1 P278Q
~1.1 | chain 1 P231S
~0.8 | chain 1 W165G
